Measured values: paper PMC12102759 (2025)

B1: CBL peptide 540-555 (E3 ubiquitin-protein ligase CBL), 16-mer library wild type / YES SH3 (YES1 SH3 domain, residues 90-152) (parent complex)
chain 1: RDLPPPPPPDRPYSVG
chain 2: not shown
B2: PIP5K1C peptide 642-657 (Phosphatidylinositol 4-phosphate 5-kinase type-1 gamma), 16-mer library wild type / TLN1 PTB (TLN1 Phosphotyrosine-binding (PTB) domain, residues 309-401) (parent complex)
chain 1: TDERSWVYSPLHYSAQ
chain 2: GVSFFLVKEKMKGKNKLVPRLLGITKECVMRVDEKTKEVIQEWNLTNIKRWAASPKSFTLDFGDYQDGYYSVQTTEGEQIAQLIAGYIDIILK

Variants of: B1
Assay: proteomic peptide phage display deep mutational scan (ProP-PD DMS): M13 P8 16-mer library selected against immobilised GST-tagged bait for four days (rounds), NGS of the eluted pools per day and pseudo-replica; bait immobilised on MaxiSorp plates (10 µg), library pre-cleared on GST, 2 h binding at 4 °C, five washes; one round per day, days 1-4; value from days 2 and 3

Point of comparison: chain 1 P12H, screen value 0.00204 average fractional NGS count over selection days 2 and 3 (reads of this peptide / all reads for the bait, averaged over …. Against it:
- chain 1 D10M — lower, 0.00163 average fractional NGS count over selection days 2 and 3 (reads of this peptide / all reads for the bait, averaged over …
- chain 1 D10H — higher, 0.00429 average fractional NGS count over selection days 2 and 3 (reads of this peptide / all reads for the bait, averaged over …
- chain 1 D10W — lower, 0.00158 average fractional NGS count over selection days 2 and 3 (reads of this peptide / all reads for the bait, averaged over …
- chain 1 D10F — lower, 0.000931 average fractional NGS count over selection days 2 and 3 (reads of this peptide / all reads for the bait, averaged over …
- chain 1 R1L — lower, 0.000379 average fractional NGS count over selection days 2 and 3 (reads of this peptide / all reads for the bait, averaged over …
- chain 1 R1P — lower, 0.000732 average fractional NGS count over selection days 2 and 3 (reads of this peptide / all reads for the bait, averaged over …
- chain 1 R1T — lower, 0.000703 average fractional NGS count over selection days 2 and 3 (reads of this peptide / all reads for the bait, averaged over …
- chain 1 R1F — lower, 0.000504 average fractional NGS count over selection days 2 and 3 (reads of this peptide / all reads for the bait, averaged over …
- chain 1 P5K — lower, 0.0018 average fractional NGS count over selection days 2 and 3 (reads of this peptide / all reads for the bait, averaged over …
- chain 1 P5R — lower, 0.00132 average fractional NGS count over selection days 2 and 3 (reads of this peptide / all reads for the bait, averaged over …
- chain 1 P5M — lower, 0.00164 average fractional NGS count over selection days 2 and 3 (reads of this peptide / all reads for the bait, averaged over …
- chain 1 P6F — higher, 0.00211 average fractional NGS count over selection days 2 and 3 (reads of this peptide / all reads for the bait, averaged over …
- chain 1 P6Q — lower, 0.000768 average fractional NGS count over selection days 2 and 3 (reads of this peptide / all reads for the bait, averaged over …
- chain 1 P6A — higher, 0.0119 average fractional NGS count over selection days 2 and 3 (reads of this peptide / all reads for the bait, averaged over …
- chain 1 P6M — higher, 0.0066 average fractional NGS count over selection days 2 and 3 (reads of this peptide / all reads for the bait, averaged over …
- chain 1 P6E — lower, 0.000208 average fractional NGS count over selection days 2 and 3 (reads of this peptide / all reads for the bait, averaged over …
- chain 1 S14D — lower, 0.000862 average fractional NGS count over selection days 2 and 3 (reads of this peptide / all reads for the bait, averaged over …
- chain 1 S14R — lower, 6.61e-05 average fractional NGS count over selection days 2 and 3 (reads of this peptide / all reads for the bait, averaged over …
- chain 1 S14M — lower, 0.00137 average fractional NGS count over selection days 2 and 3 (reads of this peptide / all reads for the bait, averaged over …
- chain 1 Y13L — higher, 0.00594 average fractional NGS count over selection days 2 and 3 (reads of this peptide / all reads for the bait, averaged over …
- chain 1 Y13A — lower, 0.00126 average fractional NGS count over selection days 2 and 3 (reads of this peptide / all reads for the bait, averaged over …
- chain 1 P4E — lower, 0.000136 average fractional NGS count over selection days 2 and 3 (reads of this peptide / all reads for the bait, averaged over …
- chain 1 P4L — lower, 0.000253 average fractional NGS count over selection days 2 and 3 (reads of this peptide / all reads for the bait, averaged over …
- chain 1 V15A — higher, 0.00486 average fractional NGS count over selection days 2 and 3 (reads of this peptide / all reads for the bait, averaged over …
- chain 1 V15W — higher, 0.0167 average fractional NGS count over selection days 2 and 3 (reads of this peptide / all reads for the bait, averaged over …
- chain 1 V15G — lower, 0.000446 average fractional NGS count over selection days 2 and 3 (reads of this peptide / all reads for the bait, averaged over …
- chain 1 V15H — higher, 0.00504 average fractional NGS count over selection days 2 and 3 (reads of this peptide / all reads for the bait, averaged over …
- chain 1 V15I — lower, 7.73e-05 average fractional NGS count over selection days 2 and 3 (reads of this peptide / all reads for the bait, averaged over …
- chain 1 V15M — higher, 0.00453 average fractional NGS count over selection days 2 and 3 (reads of this peptide / all reads for the bait, averaged over …
- chain 1 R11L — higher, 0.00999 average fractional NGS count over selection days 2 and 3 (reads of this peptide / all reads for the bait, averaged over …
- chain 1 R11P — lower, 0.00145 average fractional NGS count over selection days 2 and 3 (reads of this peptide / all reads for the bait, averaged over …
- chain 1 R11D — lower, 0.000209 average fractional NGS count over selection days 2 and 3 (reads of this peptide / all reads for the bait, averaged over …
- chain 1 P9S — lower, 0.000868 average fractional NGS count over selection days 2 and 3 (reads of this peptide / all reads for the bait, averaged over …
- chain 1 P9Q — lower, 0.00144 average fractional NGS count over selection days 2 and 3 (reads of this peptide / all reads for the bait, averaged over …
- chain 1 P9A — higher, 0.00224 average fractional NGS count over selection days 2 and 3 (reads of this peptide / all reads for the bait, averaged over …
- chain 1 P7R — lower, 0.000229 average fractional NGS count over selection days 2 and 3 (reads of this peptide / all reads for the bait, averaged over …
- chain 1 P7G — lower, 9.71e-05 average fractional NGS count over selection days 2 and 3 (reads of this peptide / all reads for the bait, averaged over …
- chain 1 P7T — higher, 0.00618 average fractional NGS count over selection days 2 and 3 (reads of this peptide / all reads for the bait, averaged over …
- chain 1 P7M — higher, 0.00246 average fractional NGS count over selection days 2 and 3 (reads of this peptide / all reads for the bait, averaged over …
- chain 1 P7H — lower, 0.00103 average fractional NGS count over selection days 2 and 3 (reads of this peptide / all reads for the bait, averaged over …
- chain 1 P7F — higher, 0.00308 average fractional NGS count over selection days 2 and 3 (reads of this peptide / all reads for the bait, averaged over …
- chain 1 P8E — lower, 0.00198 average fractional NGS count over selection days 2 and 3 (reads of this peptide / all reads for the bait, averaged over …
- chain 1 P8V — higher, 0.0212 average fractional NGS count over selection days 2 and 3 (reads of this peptide / all reads for the bait, averaged over …
- chain 1 P8M — lower, 0.00164 average fractional NGS count over selection days 2 and 3 (reads of this peptide / all reads for the bait, averaged over …
- chain 1 L3F — lower, 9.32e-05 average fractional NGS count over selection days 2 and 3 (reads of this peptide / all reads for the bait, averaged over …
- chain 1 L3K — lower, 0.000147 average fractional NGS count over selection days 2 and 3 (reads of this peptide / all reads for the bait, averaged over …
- chain 1 L3A — lower, 0.000233 average fractional NGS count over selection days 2 and 3 (reads of this peptide / all reads for the bait, averaged over …
- chain 1 L3W — lower, 0.000182 average fractional NGS count over selection days 2 and 3 (reads of this peptide / all reads for the bait, averaged over …
- chain 1 D2H — lower, 0.000405 average fractional NGS count over selection days 2 and 3 (reads of this peptide / all reads for the bait, averaged over …
- chain 1 D2Q — lower, 0.00168 average fractional NGS count over selection days 2 and 3 (reads of this peptide / all reads for the bait, averaged over …
- chain 1 P12I — higher, 0.00216 average fractional NGS count over selection days 2 and 3 (reads of this peptide / all reads for the bait, averaged over …

Variants of: B2
Assay: as above

Point of comparison: chain 1 A15S, screen value 0.001 average fractional NGS count over selection days 2 and 3 (reads of this peptide / all reads for the bait, averaged over …. Against it:
- chain 1 H12W — lower, 0.000302 average fractional NGS count over selection days 2 and 3 (reads of this peptide / all reads for the bait, averaged over …
- chain 1 H12Q — higher, 0.0044 average fractional NGS count over selection days 2 and 3 (reads of this peptide / all reads for the bait, averaged over …
- chain 1 H12P — higher, 0.00102 average fractional NGS count over selection days 2 and 3 (reads of this peptide / all reads for the bait, averaged over …
- chain 1 H12G — higher, 0.00249 average fractional NGS count over selection days 2 and 3 (reads of this peptide / all reads for the bait, averaged over …
- chain 1 H12D — higher, 0.00129 average fractional NGS count over selection days 2 and 3 (reads of this peptide / all reads for the bait, averaged over …
- chain 1 H12A — higher, 0.00137 average fractional NGS count over selection days 2 and 3 (reads of this peptide / all reads for the bait, averaged over …
- chain 1 H12N — higher, 0.00503 average fractional NGS count over selection days 2 and 3 (reads of this peptide / all reads for the bait, averaged over …
- chain 1 H12K — lower, 0.000275 average fractional NGS count over selection days 2 and 3 (reads of this peptide / all reads for the bait, averaged over …
- chain 1 H12T — higher, 0.00303 average fractional NGS count over selection days 2 and 3 (reads of this peptide / all reads for the bait, averaged over …
- chain 1 D2H — higher, 0.0024 average fractional NGS count over selection days 2 and 3 (reads of this peptide / all reads for the bait, averaged over …
- chain 1 D2M — lower, 0.000501 average fractional NGS count over selection days 2 and 3 (reads of this peptide / all reads for the bait, averaged over …
- chain 1 D2R — higher, 0.00137 average fractional NGS count over selection days 2 and 3 (reads of this peptide / all reads for the bait, averaged over …
- chain 1 D2L — higher, 0.0016 average fractional NGS count over selection days 2 and 3 (reads of this peptide / all reads for the bait, averaged over …
- chain 1 D2F — higher, 0.00154 average fractional NGS count over selection days 2 and 3 (reads of this peptide / all reads for the bait, averaged over …
- chain 1 D2E — higher, 0.00176 average fractional NGS count over selection days 2 and 3 (reads of this peptide / all reads for the bait, averaged over …
- chain 1 D2V — higher, 0.00155 average fractional NGS count over selection days 2 and 3 (reads of this peptide / all reads for the bait, averaged over …
- chain 1 D2G — higher, 0.00241 average fractional NGS count over selection days 2 and 3 (reads of this peptide / all reads for the bait, averaged over …
- chain 1 D2A — higher, 0.0142 average fractional NGS count over selection days 2 and 3 (reads of this peptide / all reads for the bait, averaged over …
- chain 1 A15I — lower, 0.000328 average fractional NGS count over selection days 2 and 3 (reads of this peptide / all reads for the bait, averaged over …
- chain 1 P10M — higher, 0.00123 average fractional NGS count over selection days 2 and 3 (reads of this peptide / all reads for the bait, averaged over …
- chain 1 P10H — higher, 0.00282 average fractional NGS count over selection days 2 and 3 (reads of this peptide / all reads for the bait, averaged over …
- chain 1 Y8I — higher, 0.00147 average fractional NGS count over selection days 2 and 3 (reads of this peptide / all reads for the bait, averaged over …
